The results in this text go back to patent publication US20150087577A1 (POLYPHOR, published 2015).

Bridges are numbered along the chain shown (N, C = ends). [ ]: non-standard residue; d: D form. Phe(4-F) = N[C@@H](Cc1ccc(F)cc1)C(=O)O; 2Nal = N[C@@H](Cc1ccc2ccccc2c1)C(=O)O; Cit = NC(=O)NCCC[C@H](N)C(=O)O; Dab = NCC[C@H](N)C(=O)O

First the molecules themselves.
B1: Example 102 (peptide)
peptide: cyclo(YRSCRG[dP]RRWCY[Cit]D[dP]P)
modifications: disulfide 4-11
SMILES: N=C(N)NCCC[C@@H]1NC(=O)[C@@H]2CSSC[C@H](NC(=O)[C@H](Cc3c[nH]c4ccccc34)NC(=O)[C@H](CCCNC(=N)N)NC(=O)[C@H](CCCNC(=N)N)NC(=O)[C@H]3CCCN3C(=O)CNC1=O)C(=O)N[C@@H](Cc1ccc(O)cc1)C(=O)N[C@@H](CCCNC(N)=O)C(=O)N[C@@H](CC(=O)O)C(=O)N1CCC[C@@H]1C(=O)N1CCC[C@H]1C(=O)N[C@@H](Cc1ccc(O)cc1)C(=O)N[C@@H](CCCNC(=N)N)C(=O)N[C@@H](CO)C(=O)N2
B2: Example 104 (peptide)
peptide: cyclo(YRTCRG[dP][Dab]R[2Nal]CYQK[dP]P)
modifications: disulfide 4-11
SMILES: C[C@@H](O)[C@@H]1NC(=O)[C@H](CCCNC(=N)N)NC(=O)[C@H](Cc2ccc(O)cc2)NC(=O)[C@@H]2CCCN2C(=O)[C@H]2CCCN2C(=O)[C@H](CCCCN)NC(=O)[C@H](CCC(N)=O)NC(=O)[C@H](Cc2ccc(O)cc2)NC(=O)[C@@H]2CSSC[C@H](NC1=O)C(=O)N[C@@H](CCCNC(=N)N)C(=O)NCC(=O)N1CCC[C@@H]1C(=O)N[C@@H](CCN)C(=O)N[C@@H](CCCNC(=N)N)C(=O)N[C@@H](Cc1ccc3ccccc3c1)C(=O)N2
B3: Example 95 (peptide)
peptide: cyclo(YRACRG[dP]RR[2Nal]CYQK[dP]P)
modifications: disulfide 4-11
SMILES: C[C@@H]1NC(=O)[C@H](CCCNC(=N)N)NC(=O)[C@H](Cc2ccc(O)cc2)NC(=O)[C@@H]2CCCN2C(=O)[C@H]2CCCN2C(=O)[C@H](CCCCN)NC(=O)[C@H](CCC(N)=O)NC(=O)[C@H](Cc2ccc(O)cc2)NC(=O)[C@@H]2CSSC[C@H](NC1=O)C(=O)N[C@@H](CCCNC(=N)N)C(=O)NCC(=O)N1CCC[C@@H]1C(=O)N[C@@H](CCCNC(=N)N)C(=O)N[C@@H](CCCNC(=N)N)C(=O)N[C@@H](Cc1ccc3ccccc3c1)C(=O)N2
B4: Example 21 (peptide)
peptide: cyclo(YR[Cit]FRV[dP]RR[2Nal]VY[Cit]K[dP]P)
SMILES: CC(C)[C@@H]1NC(=O)[C@H](Cc2ccc3ccccc3c2)NC(=O)[C@H](CCCNC(=N)N)NC(=O)[C@H](CCCNC(=N)N)NC(=O)[C@H]2CCCN2C(=O)[C@H](C(C)C)NC(=O)[C@H](CCCNC(=N)N)NC(=O)[C@H](Cc2ccccc2)NC(=O)[C@H](CCCNC(N)=O)NC(=O)[C@H](CCCNC(=N)N)NC(=O)[C@H](Cc2ccc(O)cc2)NC(=O)[C@@H]2CCCN2C(=O)[C@H]2CCCN2C(=O)[C@H](CCCCN)NC(=O)[C@H](CCCNC(N)=O)NC(=O)[C@H](Cc2ccc(O)cc2)NC1=O
B5: Example 98 (peptide)
peptide: cyclo(YRVCRG[dP]RR[2Nal]CYQK[dP]P)
modifications: disulfide 4-11
SMILES: CC(C)[C@@H]1NC(=O)[C@H](CCCNC(=N)N)NC(=O)[C@H](Cc2ccc(O)cc2)NC(=O)[C@@H]2CCCN2C(=O)[C@H]2CCCN2C(=O)[C@H](CCCCN)NC(=O)[C@H](CCC(N)=O)NC(=O)[C@H](Cc2ccc(O)cc2)NC(=O)[C@@H]2CSSC[C@H](NC1=O)C(=O)N[C@@H](CCCNC(=N)N)C(=O)NCC(=O)N1CCC[C@@H]1C(=O)N[C@@H](CCCNC(=N)N)C(=O)N[C@@H](CCCNC(=N)N)C(=O)N[C@@H](Cc1ccc3ccccc3c1)C(=O)N2
B6: Example 96 (peptide)
peptide: cyclo(YRSCRG[dP]RR[2Nal]CYQK[dP]P)
modifications: disulfide 4-11
SMILES: N=C(N)NCCC[C@@H]1NC(=O)[C@@H]2CSSC[C@H](NC(=O)[C@H](Cc3ccc4ccccc4c3)NC(=O)[C@H](CCCNC(=N)N)NC(=O)[C@H](CCCNC(=N)N)NC(=O)[C@H]3CCCN3C(=O)CNC1=O)C(=O)N[C@@H](Cc1ccc(O)cc1)C(=O)N[C@@H](CCC(N)=O)C(=O)N[C@@H](CCCCN)C(=O)N1CCC[C@@H]1C(=O)N1CCC[C@H]1C(=O)N[C@@H](Cc1ccc(O)cc1)C(=O)N[C@@H](CCCNC(=N)N)C(=O)N[C@@H](CO)C(=O)N2
B7: Example 99 (peptide)
peptide: cyclo(YR[Phe(4-F)]CRG[dP]RR[2Nal]CYQK[dP]P)
modifications: disulfide 4-11
SMILES: N=C(N)NCCC[C@@H]1NC(=O)[C@@H]2CSSC[C@H](NC(=O)[C@H](Cc3ccc4ccccc4c3)NC(=O)[C@H](CCCNC(=N)N)NC(=O)[C@H](CCCNC(=N)N)NC(=O)[C@H]3CCCN3C(=O)CNC1=O)C(=O)N[C@@H](Cc1ccc(O)cc1)C(=O)N[C@@H](CCC(N)=O)C(=O)N[C@@H](CCCCN)C(=O)N1CCC[C@@H]1C(=O)N1CCC[C@H]1C(=O)N[C@@H](Cc1ccc(O)cc1)C(=O)N[C@@H](CCCNC(=N)N)C(=O)N[C@@H](Cc1ccc(F)cc1)C(=O)N2
B8: Example 94 (peptide)
peptide: cyclo(YRKCRG[dP]RR[2Nal]CYQK[dP]P)
modifications: disulfide 4-11
SMILES: N=C(N)NCCC[C@@H]1NC(=O)[C@@H]2CSSC[C@H](NC(=O)[C@H](Cc3ccc4ccccc4c3)NC(=O)[C@H](CCCNC(=N)N)NC(=O)[C@H](CCCNC(=N)N)NC(=O)[C@H]3CCCN3C(=O)CNC1=O)C(=O)N[C@@H](Cc1ccc(O)cc1)C(=O)N[C@@H](CCC(N)=O)C(=O)N[C@@H](CCCCN)C(=O)N1CCC[C@@H]1C(=O)N1CCC[C@H]1C(=O)N[C@@H](Cc1ccc(O)cc1)C(=O)N[C@@H](CCCNC(=N)N)C(=O)N[C@@H](CCCCN)C(=O)N2
B9: Example 105 (peptide)
peptide: cyclo(YH[Cit]CRG[dP]RRWCY[Cit]K[dP]P)
modifications: disulfide 4-11
SMILES: N=C(N)NCCC[C@@H]1NC(=O)[C@@H]2CSSC[C@H](NC(=O)[C@H](Cc3c[nH]c4ccccc34)NC(=O)[C@H](CCCNC(=N)N)NC(=O)[C@H](CCCNC(=N)N)NC(=O)[C@H]3CCCN3C(=O)CNC1=O)C(=O)N[C@@H](Cc1ccc(O)cc1)C(=O)N[C@@H](CCCNC(N)=O)C(=O)N[C@@H](CCCCN)C(=O)N1CCC[C@@H]1C(=O)N1CCC[C@H]1C(=O)N[C@@H](Cc1ccc(O)cc1)C(=O)N[C@@H](Cc1c[nH]cn1)C(=O)N[C@@H](CCCNC(N)=O)C(=O)N2
B10: Example 100 (peptide)
peptide: cyclo(YRMCRG[dP]RR[2Nal]CYQK[dP]P)
modifications: disulfide 4-11
SMILES: CSCC[C@@H]1NC(=O)[C@H](CCCNC(=N)N)NC(=O)[C@H](Cc2ccc(O)cc2)NC(=O)[C@@H]2CCCN2C(=O)[C@H]2CCCN2C(=O)[C@H](CCCCN)NC(=O)[C@H](CCC(N)=O)NC(=O)[C@H](Cc2ccc(O)cc2)NC(=O)[C@@H]2CSSC[C@H](NC1=O)C(=O)N[C@@H](CCCNC(=N)N)C(=O)NCC(=O)N1CCC[C@@H]1C(=O)N[C@@H](CCCNC(=N)N)C(=O)N[C@@H](CCCNC(=N)N)C(=O)N[C@@H](Cc1ccc3ccccc3c1)C(=O)N2
B11: Example 20 (peptide)
peptide: cyclo(YR[Cit]FR[Cit]PRR[2Nal]VY[Cit]K[dP]P)
SMILES: CC(C)[C@@H]1NC(=O)[C@H](Cc2ccc3ccccc3c2)NC(=O)[C@H](CCCNC(=N)N)NC(=O)[C@H](CCCNC(=N)N)NC(=O)[C@@H]2CCCN2C(=O)[C@H](CCCNC(N)=O)NC(=O)[C@H](CCCNC(=N)N)NC(=O)[C@H](Cc2ccccc2)NC(=O)[C@H](CCCNC(N)=O)NC(=O)[C@H](CCCNC(=N)N)NC(=O)[C@H](Cc2ccc(O)cc2)NC(=O)[C@@H]2CCCN2C(=O)[C@H]2CCCN2C(=O)[C@H](CCCCN)NC(=O)[C@H](CCCNC(N)=O)NC(=O)[C@H](Cc2ccc(O)cc2)NC1=O
B12: Example 97 (peptide)
peptide: cyclo(YRLCRG[dP]RR[2Nal]CYQK[dP]P)
modifications: disulfide 4-11
SMILES: CC(C)C[C@@H]1NC(=O)[C@H](CCCNC(=N)N)NC(=O)[C@H](Cc2ccc(O)cc2)NC(=O)[C@@H]2CCCN2C(=O)[C@H]2CCCN2C(=O)[C@H](CCCCN)NC(=O)[C@H](CCC(N)=O)NC(=O)[C@H](Cc2ccc(O)cc2)NC(=O)[C@@H]2CSSC[C@H](NC1=O)C(=O)N[C@@H](CCCNC(=N)N)C(=O)NCC(=O)N1CCC[C@@H]1C(=O)N[C@@H](CCCNC(=N)N)C(=O)N[C@@H](CCCNC(=N)N)C(=O)N[C@@H](Cc1ccc3ccccc3c1)C(=O)N2
B13: Example 101 (peptide)
peptide: cyclo(YR[Cit]CSG[dP]RR[2Nal]CYQK[dP]P)
modifications: disulfide 4-11
SMILES: N=C(N)NCCC[C@@H]1NC(=O)[C@H](CCCNC(=N)N)NC(=O)[C@H]2CCCN2C(=O)CNC(=O)[C@H](CO)NC(=O)[C@@H]2CSSC[C@H](NC(=O)[C@H](Cc3ccc4ccccc4c3)NC1=O)C(=O)N[C@@H](Cc1ccc(O)cc1)C(=O)N[C@@H](CCC(N)=O)C(=O)N[C@@H](CCCCN)C(=O)N1CCC[C@@H]1C(=O)N1CCC[C@H]1C(=O)N[C@@H](Cc1ccc(O)cc1)C(=O)N[C@@H](CCCNC(=N)N)C(=O)N[C@@H](CCCNC(N)=O)C(=O)N2
B14: Example 103 (peptide)
peptide: cyclo(YR[Cit]CRG[dP]RR[2Nal]CY[Cit]E[dP]P)
modifications: disulfide 4-11
SMILES: N=C(N)NCCC[C@@H]1NC(=O)[C@@H]2CSSC[C@H](NC(=O)[C@H](Cc3ccc4ccccc4c3)NC(=O)[C@H](CCCNC(=N)N)NC(=O)[C@H](CCCNC(=N)N)NC(=O)[C@H]3CCCN3C(=O)CNC1=O)C(=O)N[C@@H](Cc1ccc(O)cc1)C(=O)N[C@@H](CCCNC(N)=O)C(=O)N[C@@H](CCC(=O)O)C(=O)N1CCC[C@@H]1C(=O)N1CCC[C@H]1C(=O)N[C@@H](Cc1ccc(O)cc1)C(=O)N[C@@H](CCCNC(=N)N)C(=O)N[C@@H](CCCNC(N)=O)C(=O)N2

The target in the experiment is human CXCR4 (human, UniProt P61073 1-352). The experiment can be described thus: cell-based or functional assay.
Chain of human CXCR4 (P61073 whole entry): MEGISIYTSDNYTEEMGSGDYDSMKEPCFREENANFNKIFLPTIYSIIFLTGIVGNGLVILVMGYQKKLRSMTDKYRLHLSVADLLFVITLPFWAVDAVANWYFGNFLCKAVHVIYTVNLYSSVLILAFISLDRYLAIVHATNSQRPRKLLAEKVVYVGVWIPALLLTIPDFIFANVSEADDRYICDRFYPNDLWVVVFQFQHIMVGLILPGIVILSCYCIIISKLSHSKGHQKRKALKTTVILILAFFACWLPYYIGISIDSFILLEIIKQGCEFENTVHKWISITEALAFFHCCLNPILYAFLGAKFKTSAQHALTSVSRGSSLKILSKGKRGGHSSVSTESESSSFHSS
As to B1, the “IC50 (nM) Ca2+ assay (method 2)” value was 8 nM.
Same read-out and setting: for B2 the value was 7.4 nM; for B3, 2.9 nM.
B4: the “IC50 (nM) Ca2+ assay (method 1)” value was determined as 550 nM.
For B5, the “IC50 (nM) Ca2+ assay (method 2)” value stood at 3.9 nM.
Regarding B6, the “IC50 (nM) Ca2+ assay (method 2)” value worked out at 3 nM.
On the same count and under the same terms, to B7 belongs 4.2 nM; to B8, 2.5 nM; to B9, 0.62 nM.
Take B10: the “IC50 (nM) Ca2+ assay (method 2)” value worked out at 7 nM.
With B11, the “IC50 (nM) Ca2+ assay (method 1)” value was found to be 3730 nM.
On to B12, for which the “IC50 (nM) Ca2+ assay (method 2)” value amounted to 4.3 nM.
The same measure, in the same setting: for B13 the value was 1.28 nM.
Take B14: the “IC50 (nM) Ca2+ assay (method 2)” value came to 18.3 nM.
